{"source": "patent US6306649", "molecular_target": "ZFHD1 (Zif268 zinc fingers-Oct1 homeodomain chimera) fused to 3xFKBP (UniProt P08046+P14859)", "sequence (P08046 whole entry, change not shown, chain 1 of 2, the tested form may be a part)": "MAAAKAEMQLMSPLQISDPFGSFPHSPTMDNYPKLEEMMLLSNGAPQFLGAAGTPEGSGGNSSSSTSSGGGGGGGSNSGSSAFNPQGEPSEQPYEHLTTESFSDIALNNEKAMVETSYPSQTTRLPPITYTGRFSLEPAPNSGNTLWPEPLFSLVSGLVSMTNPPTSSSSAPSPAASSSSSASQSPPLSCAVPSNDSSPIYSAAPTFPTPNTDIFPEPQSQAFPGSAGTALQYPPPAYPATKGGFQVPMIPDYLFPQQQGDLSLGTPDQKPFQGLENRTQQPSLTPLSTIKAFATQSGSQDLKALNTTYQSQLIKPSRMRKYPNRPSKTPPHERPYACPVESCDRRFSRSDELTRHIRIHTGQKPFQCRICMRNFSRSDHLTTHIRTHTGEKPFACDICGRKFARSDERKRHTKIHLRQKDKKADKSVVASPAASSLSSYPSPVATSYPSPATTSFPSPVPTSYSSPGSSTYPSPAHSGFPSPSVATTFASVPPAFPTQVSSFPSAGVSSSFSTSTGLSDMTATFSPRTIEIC", "sequence (P14859 whole entry, change not shown, chain 2 of 2, the tested form may be a part)": "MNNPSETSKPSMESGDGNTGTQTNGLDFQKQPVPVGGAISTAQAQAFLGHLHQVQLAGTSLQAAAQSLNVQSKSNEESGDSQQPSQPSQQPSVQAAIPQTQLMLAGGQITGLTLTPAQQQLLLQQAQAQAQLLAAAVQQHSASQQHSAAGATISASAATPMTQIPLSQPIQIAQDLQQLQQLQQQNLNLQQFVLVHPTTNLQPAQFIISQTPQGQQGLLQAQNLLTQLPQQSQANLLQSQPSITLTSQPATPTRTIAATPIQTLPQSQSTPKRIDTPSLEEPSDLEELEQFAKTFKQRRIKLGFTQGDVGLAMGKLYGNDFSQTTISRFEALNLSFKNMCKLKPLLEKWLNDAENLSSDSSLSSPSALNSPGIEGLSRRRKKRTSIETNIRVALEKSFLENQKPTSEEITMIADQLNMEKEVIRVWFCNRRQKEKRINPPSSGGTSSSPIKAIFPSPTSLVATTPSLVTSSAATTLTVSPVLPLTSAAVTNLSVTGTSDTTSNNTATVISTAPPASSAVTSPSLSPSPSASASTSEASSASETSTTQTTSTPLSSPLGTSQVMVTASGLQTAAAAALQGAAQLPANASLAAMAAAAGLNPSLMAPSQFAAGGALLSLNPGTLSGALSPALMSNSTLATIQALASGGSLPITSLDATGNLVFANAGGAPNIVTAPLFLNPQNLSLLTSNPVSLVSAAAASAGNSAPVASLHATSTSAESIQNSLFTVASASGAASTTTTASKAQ", "test": "cell_activity", "details": "SEAP reporter in HT1080 cells; rapamycin-dependent, peak at 5 nM; no SEAP without either fusion", "data": [{"sequence": "GCTAGCTAATGATGGGCGCTCGAGTAATGATGGGCGGTCGACTAATGATGGGCGCTCGAGTAATGATGGGCGTCTAGCTAATGATGGGCGCTCGAGTAATGATGGGCGGTCGACTAATGATGGGCGCTCGAGTAATGATGGGCGTCTAGCTAATGATGGGCGCTCGAGTAATGATGGGCGGTCGACTAATGATGGGCGCTCGAGTAATGATGGGCGTCTAGA (double strand) [12x ZFHD1 binding sites (pZHWTx12)]", "values": [{"measurement": "activity", "result": "> 1000", "unit": "fold"}]}]}
